Assay results: article PMC10850481, “Structural basis for the oligomerization-facilitated NLRP3 activation” (Nature Communications, 2024)

B1: PYD-deleted human NLRP3 (NLRP3_(ΔPYD)), from the construct FLAG.6His.MBP.TEV.CfaC.NLRP3_130.K131F.M132N-1036 (domain or fragment, UniProt Q96P20 130-1036, looked up)
chain: CFNKKDYRKKYRKYVRSRFQCIEDRNARLGESVSLNKRYTRLRLIKEHRSQQEREQELLAIGKTKTCESPVSPIKMELLFDPDDEHSEPVHTVVFQGAAGIGKTILARKMMLDWASGTLYQDRFDYLFYIHCREVSLVTQRSLGDLIMSCCPDPNPPIHKIVRKPSRILFLMDGFDELQGAFDEHIGPLCTDWQKAERGDILLSSLIRKKLLPEASLLITTRPVALEKLQHLLDHPRHVEILGFSEAKRKEYFFKYFSDEAQARAAFSLIQENEVLFTMCFIPLVCWIVCTGLKQQMESGKSLAQTSKTTTAVYVFFLSSLLQPRGGSQEHGLCAHLWGLCSLAADGIWNQKILFEESDLRNHGLQKADVSAFLRMNLFQKEVDCEKFYSFIHMTFQEFFAAMYYLLEEEKEGRTNVPGSRLKLPSRDVTVLLENYGKFEKGYLIFVVRFLFGLVNQERTSYLEKKLSCKISQQIRLELLKWIEVKAKAKKLQIQPSQLELFYCLYEMQEEDFVQRAMDYFPKIEINLSTRMDHMVSSFCIENCHRVESLSLGFLHNMPKEEEEEEKEGRHLDMVQCVLPSSSHAACSHGLVNSHLTSSFCRGLFSVLSTSQSLTELDLSDNSLGDPGMRVLCETLQHPGCNIRRLWLGRCGLSHECCFDISLVLSSNQKLVELDLSDNALGDFGIRLLCVGLKHLLCNLKKLWLVSCCLTSACCQDLASVLSTSHSLTRLYVGENALGDSGVAILCEKAKNPQCNLQKLGLVNSGLTSVCCSALSSVLSTNQNLTHLYLRGNTLGDKGIKLLCEGLLHPDCKLQVLELDNCNLTSHCCWDLSTLLTSSQSLRKLSLGNNDLGDLGVMMFCEVLKQQSCLLQNLGLSEMYFNYETKSALETLQEEKPELTVVFEPSW
notes: human NLRP3 (UniProt Q96P20), residues 130-1036 (NACHT and LRR, PYD deleted) with K131F and M132N next to the CfaC intein fragment; The same protomer forms an octamer (with ATP, no MCC950), a hexamer (with ATP and MCC950) and a back-to-back dimer (with NEK7, ATP and MCC950); The second construct, MBP.TEV.NLRP3_130_1036, was used only for the ATPase and nanoDSF assays; also called …

Legend:
[1] = biological target: B1; assay: cryo-EM structure; NLRP3_(ΔPYD) with ATP, MCC950 (10 fold molar excess) and NEK7_(K63M/K64M) (2 fold molar excess); Superdex 200 peak fractions; C2 symmetry imposed; closed NEK7/NLRP3 dimer; conditions: both partners purified
[2] = biological target: the molecule itself; assay: cryo-EM structure; NLRP3_(ΔPYD) with ATP, without MCC950; applied to grids immediately after SEC (Superose 6, 25 mM HEPES pH 7.4, 0.4 M NaCl, 0.2% CHAPS, 0.2 mM TCEP); D2 symmetry imposed; open octamer
[3] = biological target: the molecule itself; assay: cryo-EM structure; NLRP3_(ΔPYD) with ATP, MCC950 (10 fold molar excess) and NEK7_(K63M/K64M) (2 fold molar excess); Superdex 200 peak fractions; C2 symmetry imposed; closed NEK7/NLRP3 dimer
[4] = biological target: the molecule itself; assay: cryo-EM structure; NLRP3_(ΔPYD) with ATP and MCC950; D3 symmetry imposed; closed hexamer, seen in the dataset without NEK7 and as one of two populations in the dataset with NEK7

binding result [1]	Binder	stoichiometry N [2]	stoichiometry N [3]	stoichiometry N [4]
binds	human NEK7 with kinase mutations K63M/K64M (NEK7_(K63M/K64M)) (enzyme, human NEK7 (UniProt Q8TDX7) with kinase mutations K63M/K64M; also called NIMA-related kinase 7; 6His.SUMO.NEK7_(K63M/K64M); source: E. coli BL21(DE3), purified (HisPur Ni resin, Ulp1 cleavage, HisTrap flow-through, Superdex 200); not shown: His6, N-terminal, cleaved; SUMO, N-terminal, cleaved) not shown			
	B1	8	2	6
